What was measured:
[1] = molecular target: barley limit dextrinase present in barley malt extract (barley (Hordeum vulgare subsp. vulgare)); assay: cell-based or functional assay; details: scale: fraction of the rate of the uninhibited sample
[2] = molecular target: recombinant barley limit dextrinase inhibitor

| rate of o-NP release from compound 6 in barley malt extract (absorbance at 430 nm), with and without added limit dextrinase inhibitor [1] | Molecule | hydrolysis of compound 19 in barley malt extract after 1 h at 60 C (UPLC, fluorescence detection), with and without added LDI [2] |
| --- | --- | --- |
| 0.1 | recombinant barley limit dextrinase inhibitor |  |
|  | barley limit dextrinase present in barley malt extract (protein) MAVGETGASVSAAEAEAEATQAFMPDARAYWVTSDLIAWNVGELEAQSVCLYASRAAAMSLSPSNGGIQGYDSKVELQPESAGLPETVTQKFPFISSYRAFKVPSSVDVASLVKCQLVVASFGADGKHVDVTGLQLPGVLDDMFAYTGPLGAVFSEDSVSLHLWAPTAQGVSVCFFDGPAGPALETVQLKESNGVWSVTGPREWENRYYLYEVDVYHPTKAQVLKCLAGDPYARSLSANGARTWLVDINNETLKPASWDELADEKPKLDSFSDITIYELHIRDFSAHDGTVDSDSRGGFRAFAYQASAGMEHLRKLSDAGLTHVHLLPSFHFAGVDDIKSNWKFVDECELATFPPGSDMQQAAVVAIQEEDPYNWGYNPVLWGVPKGSYASDPDGPSRIIEYRQMVQALNRIGLRVVMDVVYNHLDSSGPCGISSVLDKIVPGYYVRRDTNGQIENSAAMNNTASEHFMVDRLIVDDLLNWAVNYKVDGFRFDLMGHIMKRTMVTKSALQSLTTDAHGVDGSKIYLYGEGWDFAEVARNQRGINGSQLNMSGTGIGSFNDRIRDAINGGNPFGNPLQQGFNTGLFLEPNGFYQGNEADTRRSLATYADQIQIGLAGNLRDYVLISHTGEAKKGSEIHTFDGLPVGYTASPIETINYVSAHDNETLFDVISVKTPMILSVDERCRINHLASSMMALSQGIPFFHAGDEILRSKSIDRDSYNSGDWFNKLDFTYETNNWGVGLPPSEKNEDNWPLMKPRLENPSFKPAKGHILAALDSFVDILKIRYSSPLFRLSTANDIKQRVRFHNTGPSLVPGVIVMGIEDARGESPEMAQLDTNFSYVVTVFNVCPHEVSMDIPALASMGFELHPVQVNSSDTLVRKSAYEAATGRFTVPGRTVSVFVEPRC | When LDI was added to the extract, almost all activity of limit dextrinase was inhibited, and only negligible amounts of the compound 19 was hydrolyzed |

From US20150140573A1
